B1: CPEB3 Ribozyme (parent)
chain: GGGGGCCACAGCAGAAGCGUUCACGUCGCGGCCCCUGUCAGAUUCUGGUGAAUCUGCGAAUUCUGCUGU

From the RNAGym collection of RNA variant scans (doi:10.7554/elife.80360) come the findings set out here.

Variants of B1 are the subject of the data set. The data set can be described thus: self-cleavage, relative activity (ratio to wild type); higher = more cleavage; co-transcriptional.
GGGGGCCACAGCAGAAGCGUUCAGGUCGCGGCCCCUGGCAGAUUCUGGUGAAUCUGCGAAUUCUGCUGU [C24G U38G]: the self-cleavage amounted to 0.215.
The figure for GGGGGCCACAGCAGAAGCGUUCAGGUCGCGGCCCCUGUCAGAUUCUGGUGAAUCUGCGAAUUCUGCUUU [C24G G68U] is 0.699; for GGGGGCCACAGCAGAAGCGUUCAGGUCGCGGCCCCUGUCAGAUUCUGGUGAAUCUGCGAAUUCUGCUAU [C24G G68A] it is 0.725; for GGGGGCCACAGCAGAAGCGUUCAGGUCGCGGCCCCUAUCAGAUUCUGGUGAAUCUGCGAAUUCUGCUGU [C24G G37A] it is 0.131.
Consider GGGGGCCACAGCAGAAGCGUUCAGGUCGCGGCCCCUCUCAGAUUCUGGUGAAUCUGCGAAUUCUGCUGU [C24G G37C], for which the self-cleavage stood at 0.219.
In the case of GGGGGCCACAGCAGAAGCGUUCAGGCCGCGGCCCCUGUCAGAUUCUGGUGAAUCUGCGAAUUCUGCUGU [C24G U26C], the self-cleavage worked out at 0.386.
Take GGGGGCCACAGCAGAAGCGUUCAUGUCGCGGCCCCUGUCAGUUUCUGGUGAAUCUGCGAAUUCUGCUGU [C24U A42U]: the self-cleavage came out at 0.654.
With GGGGGCCACAGCAGAAGCGUUCAUGUCGCGGCCCCUGUCAGGUUCUGGUGAAUCUGCGAAUUCUGCUGU [C24U A42G], the self-cleavage came to 0.631.
GGGGGCCACAGCAGAAGCGUUCAGGUCGCGGCCCCUGUCAGAUACUGGUGAAUCUGCGAAUUCUGCUGU [C24G U44A]: the self-cleavage stood at 0.514.
In the case of GGGGGCCACAGCAGAAGCGUUCAGGUCGCGGCCCCUGUCAGAUCCUGGUGAAUCUGCGAAUUCUGCUGU [C24G U44C], the self-cleavage was found to be 0.348.
For GGGGGCCACAGCAGAAGCGUUCAUGUCGCGGCCCUUGUCAGAUUCUGGUGAAUCUGCGAAUUCUGCUGU [C24U C35U], the self-cleavage was 0.579.
As to GGGGGCCACAGCAGAAGCGUUCAGGUCGCGGCCCCUGUCAGACUCUGGUGAAUCUGCGAAUUCUGCUGU [C24G U43C], the self-cleavage was 0.309.
The figure for GGGGGCCACAGCAGAAGCGUUCAGGUCGCGGCCCCUGUCAGAAUCUGGUGAAUCUGCGAAUUCUGCUGU [C24G U43A] is 0.348.
The figure for GGGGGCCACAGCAGAAGCGUUCAGGUCGCGGCCCCUGUCAGAUUCUGGUGAAUCUGCGAAUUCUACUGU [C24G G65A] is 0.26; for GGGGGCCACAGCAGAAGCGUUCAUGUUGCGGCCCCUGUCAGAUUCUGGUGAAUCUGCGAAUUCUGCUGU [C24U C27U] it is 0.193.
As for GGGGGCCACAGCAGAAGCGUUCAUGUGGCGGCCCCUGUCAGAUUCUGGUGAAUCUGCGAAUUCUGCUGU [C24U C27G], the figure is 0.189; as for GGGGGCCACAGCAGAAGCGUUCAUGUCGCGGCCCCUGUCAGAUUCUGGUGAAUCUGCGAAUUCUGCUGU [C24U], 0.844.
GGGGGCCACAGCAGAAGCGUUCAUGUCGCGGCCCCUGUCGGAUUCUGGUGAAUCUGCGAAUUCUGCUGU [C24U A40G]: the self-cleavage was 0.738.
On to GGGGGCCACAGCAGAAGCGUUCAUGUCGCGGCCCCUGUCUGAUUCUGGUGAAUCUGCGAAUUCUGCUGU [C24U A40U], for which the self-cleavage is 0.317.
As for GGGGGCCACAGCAGAAGCGUUCAGGUCGCGGCCCCUGUCAGAUUCUGUUGAAUCUGCGAAUUCUGCUGU [C24G G48U], the figure is 0.528; as for GGGGGCCACAGCAGAAGCGUUCAGGUCGCGCCCCCUGUCAGAUUCUGGUGAAUCUGCGAAUUCUGCUGU [C24G G31C], 0.134; as for GGGGGCCACAGCAGAAGCGUUCAGGUCGCGGCCCCUGUCACAUUCUGGUGAAUCUGCGAAUUCUGCUGU [C24G G41C], 0.18.
In the case of GGGGGCCACAGCAGAAGCGUUCAUGUCGCGGGCCCUGUCAGAUUCUGGUGAAUCUGCGAAUUCUGCUGU [C24U C32G], the self-cleavage came to 0.211.
On to GGGGGCCACAGCAGAAGCGUUCAUGUCGCGGACCCUGUCAGAUUCUGGUGAAUCUGCGAAUUCUGCUGU [C24U C32A], for which the self-cleavage turned out to be 0.414.
Consider GGGGGCCACAGCAGAAGCGUUCAUGUCGAGGCCCCUGUCAGAUUCUGGUGAAUCUGCGAAUUCUGCUGU [C24U C29A], for which the self-cleavage was found to be 0.292.
For the variant GGGGGCCACAGCAGAAGCGUUCAUGUCGUGGCCCCUGUCAGAUUCUGGUGAAUCUGCGAAUUCUGCUGU [C24U C29U], the self-cleavage was found to be 0.143.
GGGGGCCACAGCAGAAGCGUUCAUGUCGGGGCCCCUGUCAGAUUCUGGUGAAUCUGCGAAUUCUGCUGU [C24U C29G]: the self-cleavage worked out at 0.246.
As to GGGGGCCACAGCAGAAGCGUUCAUGUCGCGGCCCCUGUCAGAUUCUGGUGAAUUUGCGAAUUCUGCUGU [C24U C54U], the self-cleavage stood at 0.808.
For GGGGGCCACAGCAGAAGCGUUCAUGUCGCGGCCCCUGUCAGAUUCUGGUGAAUAUGCGAAUUCUGCUGU [C24U C54A], the self-cleavage amounted to 0.561.
Regarding GGGGGCCACAGCAGAAGCGUUCAUGUCGCGGCCCCUGUCAGAUUAUGGUGAAUCUGCGAAUUCUGCUGU [C24U C45A], the self-cleavage is 0.743.
As to GGGGGCCACAGCAGAAGCGUUCAUGUCGCGGCCCCUGUCAGAUUGUGGUGAAUCUGCGAAUUCUGCUGU [C24U C45G], the self-cleavage turned out to be 0.776.
GGGGGCCACAGCAGAAGCGUUCAUGUCGCGGCCUCUGUCAGAUUCUGGUGAAUCUGCGAAUUCUGCUGU [C24U C34U]: the self-cleavage stood at 0.858.
For the variant GGGGGCCACAGCAGAAGCGUUCAUGUCGCGGCCGCUGUCAGAUUCUGGUGAAUCUGCGAAUUCUGCUGU [C24U C34G], the self-cleavage was 0.283.
The figure for GGGGGCCACAGCAGAAGCGUUCAUGUCGCGGCCACUGUCAGAUUCUGGUGAAUCUGCGAAUUCUGCUGU [C24U C34A] is 0.263; for GGGGGCCACAGCAGAAGCGUUCAUGUCGCGGCCCCUGUCAGAUUCUGGUGAAUCUGCGGAUUCUGCUGU [C24U A59G] it is 0.866; for GGGGGCCACAGCAGAAGCGUUCAUGUCGCGGCCCCUGUCAGAUUCUGGUGAAUCUGCGCAUUCUGCUGU [C24U A59C] it is 0.281.
GGGGGCCACAGCAGAAGCGUUCAGGUCGCGGCCCCAGUCAGAUUCUGGUGAAUCUGCGAAUUCUGCUGU [C24G U36A]: the self-cleavage stood at 0.118.
On to GGGGGCCACAGCAGAAGCGUUCAGGUCGCGGCCCCGGUCAGAUUCUGGUGAAUCUGCGAAUUCUGCUGU [C24G U36G], for which the self-cleavage worked out at 0.146.
As for GGGGGCCACAGCAGAAGCGUUCAGGUCGCGGCCCCCGUCAGAUUCUGGUGAAUCUGCGAAUUCUGCUGU [C24G U36C], the self-cleavage amounted to 0.171.
